This is an account of results in patent publication US20170298119A1 (VISTERRA, published 2017).

For experiment [1], the target named is T1, wild type ZIKV EDIII displayed on yeast (yeast; Zika virus).
T1 construct: also called WT EDIII
Kind of experiment: yeast display of wild type ZIKV EDIII, flow cytometry (Alexa-647 MFI) over hybridoma supernatant dilutions; KD from the 50% maximal binding dilution and the Octet-quantified supernatant concentration.

The target of experiment [2] is T1, wild type ZIKV EDIII displayed on yeast.
The next experiment deals with T2, DENV EDIII protein (dengue virus, UniProt P17763 573-679).
T2 construct: domain: EDIII; also called EDIII-DV1; dengue virus E protein domain III
T2 sequence (P17763 573-679 limits assumed): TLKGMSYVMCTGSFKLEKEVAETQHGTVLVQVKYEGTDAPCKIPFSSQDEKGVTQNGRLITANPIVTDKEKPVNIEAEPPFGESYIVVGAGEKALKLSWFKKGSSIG
Kind of experiment: ELISA of Example 7 on coated DENV EDIII, where p-1318 says 'minimal cross-reactivity with the DENV EDIII protein'.

The next experiment has as its target T3, recombinant FcRn protein (Homo sapiens (Human), UniProt P55899 24-297; P61769 21-119).
T3 construct: also called neonatal Fc receptor; copies: 1 + 1
Kind of experiment: BLI (Octet): antibody on anti-CH1 biosensors, recombinant FcRn at pH 6.0; fold change against wild type Motavizumab.

Like-named read-outs stand apart in the source and are kept apart here.

T3 sequence (P55899 24-297 limits assumed, chain 1 of 2): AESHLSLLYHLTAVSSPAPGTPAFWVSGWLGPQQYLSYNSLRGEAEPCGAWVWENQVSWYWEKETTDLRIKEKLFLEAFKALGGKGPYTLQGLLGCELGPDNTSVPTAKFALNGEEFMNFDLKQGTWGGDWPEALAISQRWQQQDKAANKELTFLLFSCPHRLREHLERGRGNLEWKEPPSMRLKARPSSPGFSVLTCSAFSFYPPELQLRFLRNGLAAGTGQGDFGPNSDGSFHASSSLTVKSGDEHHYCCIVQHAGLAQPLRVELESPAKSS
T3 sequence (P61769 21-119 limits assumed, chain 2 of 2): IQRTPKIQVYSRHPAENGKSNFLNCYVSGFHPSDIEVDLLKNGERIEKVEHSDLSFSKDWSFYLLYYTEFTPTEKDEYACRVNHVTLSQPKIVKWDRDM
T1 sequence (P32781 19-87): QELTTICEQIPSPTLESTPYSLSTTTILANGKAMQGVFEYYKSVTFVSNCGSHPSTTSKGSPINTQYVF

B1: ZV-67 (antibody, V domains shown)
VH: QVQLQQSGTGLARPGASVKLSCKASGYTFTSYGISWVTQRAGQGLEWIGVIYPRSGNTYYNEKFRGKATLTADKSSSSAYMELRGLTAEDSAVYFCARENYGSVYWGQGTTLTVSS
VL: DIVMTQSQKFMSTSVGDRVSITCKASQNVGTAVAWYQQKPGQSPKLLIYSASNRYTGVPDRFTGSGSGTDFTLTISNMQSEDLADYFCQQFSSYPYTFGGGTKLEIK
The molecule B1 showed a Kd in experiment [1] of 0.65 nM.

B2: ZV-54 (antibody, V domains shown)
VH: QVQLQQSGVGLARPGTSVKLSCKASGYSFTTYGISWVTQRPGQGLEWIGVIYPRSNNTYYNERFRGKATLTADKSSSSAYLELRGLTAEDSAVYFCARENYGSVYWGQGTTLTVSS
VL: DIVMTQSQKFMSTSVGDRVTITCKASQSVGTAVAWYHQKPGQSPKLLIYSASNRYTGVPDRFTGSGSGTDFTLTITYMQSEDLADYFCQQFSNYPFTFGGGTKLEIK
notes: also called ZWT; Rec54
For B2, in experiment [2], the affinity, expressed as Kd, was 0.74 nM. Also, in the experiment with DENV EDIII protein, the binding result is listed as “no binding”.

B3: FcMut186 (antibody)
chain: ASTKGPSVFPLAPSSKSTSGGTAALGCLVKDYFPEPVTVSWNSGALTSGVHTFPAVLQSSGLYSLSSVVTVPSSSLGTQTYICNVNHKPSNTKVDKKVEPKSCDKTHTCPPCPAPELLGGPSVFLFPPKPKDTLMISRDPEVTCVVVDVSHEDPEVKFNWYVDGVEVHNAKTKPREEQYNSTYRVVSVLRVLHVDWLNGKEYKCKVSNKALPAPIEKTISKAKGQPREPQVYTLPPSRDELTKNQVSLTCLVKGFYPSDIVVEWESNGQPENNYKTTPPVLDSDGSFFLYSKLTVDKSRWQQGNVFSCSVMHEALHNHYTQKSLSLSPGK
For the molecule B3, in the experiment with recombinant FcRn protein, the “Kd (fold increase)” value is 10.3 fold, the “koff (fold decrease)” value amounted to 3.5 fold and the “kon (fold increase)” value was 2.7 fold.

B4: FcMut229 (antibody)
chain: ASTKGPSVFPLAPSSKSTSGGTAALGCLVKDYFPEPVTVSWNSGALTSGVHTFPAVLQSSGLYSLSSVVTVPSSSLGTQTYICNVNHKPSNTKVDKKVEPKSCDKTHTCPPCPAPELLGGPSVFLFPPKPKDTLMISRDPEVTCVVVDVSHEDPEVKFNWYVDGVEVDNAKTKPREEQYNSTYRVVSVLRVLHVDWLNGKEYKCKVSNKALPAPIEKTISKAKGQPREPQVYTLPPSRDELTKNQVSLTCLVKGFYPSDIVVEWESNGQPENNYKTTPPVLDSDGSFFLYSKLTVDKSRWQQGNVFSCSVMHEALHNHYTQKSLSLSPGK
Consider B4, for which, in the experiment with recombinant FcRn protein, the “Kd (fold increase)” value worked out at 5.6 fold, the “koff (fold decrease)” value was determined as 4.3 fold and the “kon (fold increase)” value amounted to 1.1 fold.

B5: FcMut171 (antibody)
chain: ASTKGPSVFPLAPSSKSTSGGTAALGCLVKDYFPEPVTVSWNSGALTSGVHTFPAVLQSSGLYSLSSVVTVPSSSLGTQTYICNVNHKPSNTKVDKKVEPKSCDKTHTCPPCPAPELLGGPSVFLFPPKPKDTLMISRDPEVTCVVVDVSHEDPEVKFNWYVDGVEVHDAKTKPREEQYNSTYRVVSVLRVLHVDWLNGKEYKCKVSNKALPAPIEKTISKAKGQPREPQVYTLPPSRDELTKNQVSLTCLVKGFYPSDIAVEWESNGQPENNYKTTPPVLDSDGSFFLYSKLTVDKSRWQQGNVFSCSVMHEALHNHYTQKSLSLSPGK
As for B5, in the experiment with recombinant FcRn protein, the “Kd (fold increase)” value was 8.2 fold, the “koff (fold decrease)” value turned out to be 3.5 fold and the “kon (fold increase)” value came out at 2 fold.
